Among the targets are av6_3 M15RG64R; av6_3 E13TM15RA39KG64R; av6_3 E13TG64R; av6_3 E13TM15RA39K; av6_3 M15R; av6_3 G64R; av6_3 A39K.
Test in all cases: BLI; Octet RED96; His-tagged or Avi-tagged minibinder immobilised on Ni-NTA or streptavidin tips, dipped into titrations of integrin; association 900 s, dissociation 1200 s
(In general: Biolayer interferometry detects binding as a change in optical thickness at a sensor tip.)

Sequence of av6_3 A39K (main, as listed by the source A39K): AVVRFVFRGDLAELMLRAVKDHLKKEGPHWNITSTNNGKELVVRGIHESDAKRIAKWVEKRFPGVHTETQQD
Sequence of av6_3 M15R (main, as listed by the source M15R): as the sequence (main, as listed by the source A39K) above, with M15R, K39A counted along it
Sequence of av6_3 E13TM15RA39KG64R (main, as listed by the source): as the sequence (main, as listed by the source A39K) above, with E13T, M15R, G64R counted along it
Sequence of av6_3 E13TG64R (main, as listed by the source): as the sequence (main, as listed by the source A39K) above, with E13T, K39A, G64R counted along it
Sequence of av6_3 M15RG64R (main, as listed by the source): as the sequence (main, as listed by the source A39K) above, with M15R, K39A, G64R counted along it
Sequence of av6_3 E13TM15RA39K (main, as listed by the source): as the sequence (main, as listed by the source A39K) above, with E13T, M15R counted along it
Sequence of av6_3 G64R (main, as listed by the source G64R): as the sequence (main, as listed by the source A39K) above, with K39A, G64R counted along it

Turning to “human integrin αvβ6 (soluble, BLI analyte) (from UniProt P06756 31-1048; P18564 22-709) (receptor)”, the Kd (usually the free concentration of one partner at which half of the binding sites on the other are occupied at equilibrium, for simple one-to-one binding) came out at 740 pM with av6_3 M15RG64R; 790 pM in the assay with av6_3 E13TM15RA39KG64R; 790 pM with av6_3 E13TG64R; 1080 pM with av6_3 E13TM15RA39K; 380 pM with av6_3 M15R; 950 pM in the assay with av6_3 G64R. In the assay with av6_3 A39K, this substance registered an equilibrium dissociation constant (Kd) of 640 pM. Besides, the koff (usually a measure of how fast the partners let go of each other) with av6_3 M15RG64R is 7.71e-05 s⁻¹; with av6_3 E13TM15RA39KG64R, 8.31e-05 s⁻¹; in the assay with av6_3 E13TG64R, 8.87e-05 s⁻¹; in the assay with av6_3 E13TM15RA39K, 9.1e-05 s⁻¹; with av6_3 M15R, 6.65e-05 s⁻¹; with av6_3 G64R it was 0.000134 s⁻¹. In the assay with av6_3 A39K, the koff is 8.16e-05 s⁻¹. The kon – broadly, a measure of how fast the partners come together – with av6_3 M15RG64R was determined as 104000 M⁻¹ s⁻¹; with av6_3 E13TM15RA39KG64R it was 104000 M⁻¹ s⁻¹; with av6_3 E13TG64R it was 112000 M⁻¹ s⁻¹; in the assay with av6_3 E13TM15RA39K, 84300 M⁻¹ s⁻¹; with av6_3 M15R, 175000 M⁻¹ s⁻¹; with av6_3 G64R, 141000 M⁻¹ s⁻¹. In the assay with av6_3 A39K, this substance came in with a kon of 127000 M⁻¹ s⁻¹.
